Laboratory results reported in article PMC9990120 (Journal of Proteome Research, 2023).

Biological target: BirA*-FLAG tagged GSK-3β (UniProt P49841 1-420)
Test: proximity labelling

BirA*-FLAG tagged GSK-3β, sequence (P49841 whole entry): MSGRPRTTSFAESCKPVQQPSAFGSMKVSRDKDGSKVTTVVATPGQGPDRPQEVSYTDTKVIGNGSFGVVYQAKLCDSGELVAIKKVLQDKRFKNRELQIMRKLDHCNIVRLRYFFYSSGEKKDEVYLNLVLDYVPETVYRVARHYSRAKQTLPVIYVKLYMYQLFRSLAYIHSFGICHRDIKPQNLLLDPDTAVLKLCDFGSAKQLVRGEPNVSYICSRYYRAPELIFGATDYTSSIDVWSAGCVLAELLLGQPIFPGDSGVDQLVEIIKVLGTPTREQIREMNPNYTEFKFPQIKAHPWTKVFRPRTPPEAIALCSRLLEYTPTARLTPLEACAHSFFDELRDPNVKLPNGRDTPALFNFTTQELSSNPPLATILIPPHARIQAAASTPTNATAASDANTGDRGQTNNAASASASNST

fold signal intensity against the GSK-3α bait (normalised to bait level): ~4 fold
B1: MISP (natural protein)
chain: MDRVTRYPILGIPQAHRGTGLVLDGDTSYTYHLVCMGPEASGWGQDEPQTWPTDHRAQQGVQRQGVSYSVHAYTGQPSPRGLHSENREDEGWQVYRLGARDAHQGRPTWALRPEDGEDKEMKTYRLDAGDADPRRLCDLERERWAVIQGQAVRKSSTVATLQGTPDHGDPRTPGPPRSTPLEENVVDREQIDFLAARQQFLSLEQANKGAPHSSPARGTPAGTTPGASQAPKAFNKPHLANGHVVPIKPQVKGVVREENKVRAVPTWASVQVVDDPGSLASVESPGTPKETPIEREIRLAQEREADLREQRGLRQATDHQELVEIPTRPLLTKLSLITAPRRERGRPSLYVQRDIVQETQREEDHRREGLHVGRASTPDWVSEGPQPGLRRALSSDSILSPAPDARAADPAPEVRKVNRIPPDAYQPYLSPGTPQLEFSAFGAFGKPSSLSTAEAKAATSPKATMSPRHLSESSGKPLSTKQEASKPPRGCPQANRGVVRWEYFRLRPLRFRAPDEPQQAQVPHVWGWEVAGAPALRLQKSQSSDLLERERESVLRREQEVAEERRNALFPEVFSPTPDENSDQNSRSSSQASGITGSYSVSESPFFSPIHLHSNVAWTVEDPVDSAPPGQRKKEQWYAGINPSDGINSEVLEAIRVTRHKNAMAERWESRIYASEEDD
